Measured values taken from the supplement of paper PMC9876800.

System: peptide library, one residue held at a place counted from the S/T acceptor
Assay: relative phosphorylation of the sub-library (ratio to the mean residue at this position); higher = residue favoured
Settings: human
Procedure, shortened: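 Each biotinylated degenerate peptide sub-library fixed one residue at one position around a central Ser/Thr and was incubated with a purified recombinant kinase, a human or orthologue construct, in 384-well plates. The 90 min reactions, under kinase-specific conditions, contained 50 μM peptide and 50 μM ATP spiked with γ-32P-ATP. Phosphorylation was read by phosphorimaging spots on streptavidin membranes and quantifying them by densitometry. Relative sub-library phosphorylation expresses each value as a ratio to the mean residue at that position.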

LRRK2, construct: aa960-end, sequence (Q5S007 960-2527, looked up): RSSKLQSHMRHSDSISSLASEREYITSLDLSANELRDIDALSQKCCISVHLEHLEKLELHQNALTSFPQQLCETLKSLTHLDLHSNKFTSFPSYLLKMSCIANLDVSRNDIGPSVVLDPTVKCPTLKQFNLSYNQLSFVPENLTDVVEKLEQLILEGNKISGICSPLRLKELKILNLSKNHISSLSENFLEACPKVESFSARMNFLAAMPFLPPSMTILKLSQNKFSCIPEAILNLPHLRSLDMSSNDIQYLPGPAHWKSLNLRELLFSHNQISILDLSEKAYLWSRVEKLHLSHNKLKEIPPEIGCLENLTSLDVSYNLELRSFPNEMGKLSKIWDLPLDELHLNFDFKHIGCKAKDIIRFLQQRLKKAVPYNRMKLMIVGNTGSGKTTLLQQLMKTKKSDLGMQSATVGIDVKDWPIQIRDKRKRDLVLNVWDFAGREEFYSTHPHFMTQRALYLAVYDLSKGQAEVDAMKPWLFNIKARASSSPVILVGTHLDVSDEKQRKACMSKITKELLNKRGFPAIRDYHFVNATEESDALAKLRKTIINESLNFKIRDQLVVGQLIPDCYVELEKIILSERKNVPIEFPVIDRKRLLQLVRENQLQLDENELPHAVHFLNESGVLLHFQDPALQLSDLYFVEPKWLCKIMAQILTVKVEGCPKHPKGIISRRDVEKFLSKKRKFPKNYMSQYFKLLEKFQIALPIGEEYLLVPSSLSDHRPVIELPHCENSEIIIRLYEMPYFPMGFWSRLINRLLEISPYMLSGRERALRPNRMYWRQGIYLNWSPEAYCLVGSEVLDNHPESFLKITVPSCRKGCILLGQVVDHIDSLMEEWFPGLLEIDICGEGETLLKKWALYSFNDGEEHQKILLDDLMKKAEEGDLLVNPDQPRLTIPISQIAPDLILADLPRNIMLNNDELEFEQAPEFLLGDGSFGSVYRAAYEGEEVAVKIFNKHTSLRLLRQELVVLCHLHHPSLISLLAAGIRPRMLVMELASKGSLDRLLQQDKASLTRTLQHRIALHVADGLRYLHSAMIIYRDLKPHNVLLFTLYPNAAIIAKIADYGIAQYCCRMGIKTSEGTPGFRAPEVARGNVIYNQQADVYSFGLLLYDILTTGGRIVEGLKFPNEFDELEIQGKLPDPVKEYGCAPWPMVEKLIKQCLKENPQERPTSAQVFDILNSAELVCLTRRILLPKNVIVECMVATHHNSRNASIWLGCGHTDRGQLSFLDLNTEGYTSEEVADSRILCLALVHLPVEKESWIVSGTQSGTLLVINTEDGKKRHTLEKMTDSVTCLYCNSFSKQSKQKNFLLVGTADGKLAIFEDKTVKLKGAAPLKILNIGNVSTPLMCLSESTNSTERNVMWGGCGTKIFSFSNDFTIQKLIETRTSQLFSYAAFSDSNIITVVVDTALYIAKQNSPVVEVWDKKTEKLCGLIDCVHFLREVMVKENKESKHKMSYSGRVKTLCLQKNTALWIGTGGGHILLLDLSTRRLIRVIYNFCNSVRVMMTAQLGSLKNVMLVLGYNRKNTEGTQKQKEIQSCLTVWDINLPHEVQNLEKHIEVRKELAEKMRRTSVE
STK32C, construct: aa66-end, sequence (Q86UX6 66-486, looked up): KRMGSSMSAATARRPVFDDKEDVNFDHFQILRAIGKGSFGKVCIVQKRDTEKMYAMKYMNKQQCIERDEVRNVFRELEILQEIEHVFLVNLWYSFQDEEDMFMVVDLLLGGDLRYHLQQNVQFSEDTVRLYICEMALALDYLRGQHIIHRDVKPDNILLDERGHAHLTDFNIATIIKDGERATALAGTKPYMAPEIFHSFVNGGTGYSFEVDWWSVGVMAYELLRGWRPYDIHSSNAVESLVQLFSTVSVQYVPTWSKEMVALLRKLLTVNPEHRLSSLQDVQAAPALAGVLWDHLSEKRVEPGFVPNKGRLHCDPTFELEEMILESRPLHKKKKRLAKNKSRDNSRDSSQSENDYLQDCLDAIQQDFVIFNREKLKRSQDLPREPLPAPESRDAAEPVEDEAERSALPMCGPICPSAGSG
OXSR1, construct: Full length, sequence (O95747 whole entry, looked up): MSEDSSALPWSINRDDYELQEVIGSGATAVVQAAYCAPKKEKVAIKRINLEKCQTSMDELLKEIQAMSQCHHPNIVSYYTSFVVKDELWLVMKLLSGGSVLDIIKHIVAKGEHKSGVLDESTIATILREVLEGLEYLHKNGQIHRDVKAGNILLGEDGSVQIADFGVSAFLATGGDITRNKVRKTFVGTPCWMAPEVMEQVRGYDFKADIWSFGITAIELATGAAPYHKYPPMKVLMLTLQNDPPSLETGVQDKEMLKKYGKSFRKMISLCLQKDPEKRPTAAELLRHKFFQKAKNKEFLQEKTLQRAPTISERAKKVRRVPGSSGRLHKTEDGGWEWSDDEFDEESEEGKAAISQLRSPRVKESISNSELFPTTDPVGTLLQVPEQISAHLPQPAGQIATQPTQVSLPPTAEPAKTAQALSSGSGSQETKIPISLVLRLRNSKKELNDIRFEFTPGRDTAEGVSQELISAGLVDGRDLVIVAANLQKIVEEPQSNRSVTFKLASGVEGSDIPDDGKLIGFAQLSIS
MAP3K8, construct: aa30-397, sequence (P41279 30-397, looked up): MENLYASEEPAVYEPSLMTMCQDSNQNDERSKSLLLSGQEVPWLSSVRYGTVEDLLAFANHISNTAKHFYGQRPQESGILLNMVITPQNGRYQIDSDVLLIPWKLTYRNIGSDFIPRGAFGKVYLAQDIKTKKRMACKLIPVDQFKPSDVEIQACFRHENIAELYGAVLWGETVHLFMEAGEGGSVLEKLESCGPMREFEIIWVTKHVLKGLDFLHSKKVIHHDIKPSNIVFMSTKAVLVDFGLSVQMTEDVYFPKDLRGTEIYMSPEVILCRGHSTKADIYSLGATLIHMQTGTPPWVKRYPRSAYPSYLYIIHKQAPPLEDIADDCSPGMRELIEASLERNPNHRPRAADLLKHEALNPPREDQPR

OXSR1, construct: Full length (from UniProt O95747)
relative phosphorylation
Settings | at +1 | at +2 | at +3 | at +4 | at -1 | at -2 | at -3 | at -4 | at -5
A fixed | 0.587 | 0.646 | 1.07 | 1 | 0.862 | 0.695 | 0.845 | 1.05 | 1.23
D fixed | 0.346 | 0.325 | 0.493 | 0.683 | 1.83 | 1.34 | 1.26 | 1.9 | 1.83
E fixed | 0.382 | 0.249 | 0.487 | 0.666 | 1.19 | 1.31 | 1.27 | 1.8 | 1.52
F fixed | 1.08 | 0.495 | 0.574 | 0.702 | 0.643 | 0.693 | 0.48 | 0.722 | 0.76
G fixed | 0.509 | 1.09 | 1.42 | 1.37 | 0.801 | 1.31 | 1.17 | 1.41 | 1.4
H fixed | 1.21 | 3.55 | 1.17 | 1.07 | 1.67 | 1.43 | 1.57 | 1 | 0.976
I fixed | 1.69 | 0.541 | 0.443 | 0.596 | 0.447 | 0.333 | 0.36 | 0.329 | 0.386
K fixed | 0.838 | 1.25 | 2.23 | 1.93 | 0.975 | 0.584 | 0.783 | 0.964 | 1.06
L fixed | 1.14 | 0.459 | 0.531 | 0.634 | 0.931 | 0.432 | 0.384 | 0.416 | 0.519
M fixed | 1.36 | 0.76 | 0.613 | 0.78 | 0.968 | 0.531 | 0.51 | 0.633 | 0.581
N fixed | 0.689 | 1.18 | 1.1 | 0.947 | 1.64 | 1.69 | 2.04 | 1.14 | 0.96
P fixed | 0.351 | 0.677 | 1.47 | 1.29 | 0.494 | 0.673 | 1.3 | 1.22 | 1.4
Q fixed | 1.06 | 1 | 0.907 | 1.06 | 0.987 | 1.61 | 1.18 | 1.09 | 0.757
R fixed | 1.04 | 2.08 | 2.47 | 1.7 | 1.33 | 0.677 | 0.846 | 0.994 | 1.12
V fixed | 1.53 | 0.678 | 0.556 | 0.63 | 0.446 | 0.378 | 0.552 | 0.535 | 0.549
W fixed | 1.99 | 0.782 | 0.72 | 1.09 | 0.706 | 0.84 | 0.663 | 0.864 | 0.852
Y fixed | 1.2 | 1.23 | 0.739 | 0.856 | 1.09 | 2.46 | 1.79 | 0.937 | 1.11
pThr fixed | 0.911 | 0.562 | 0.699 | 0.507 | 0.94 | 1.06 | 1.43 | 1.49 | 1.46
pTyr fixed | 0.769 | 0.428 | 0.728 | 0.82 | 2.18 | 1.52 | 1.41 | 1.53 | 1.82

STK32C, construct: aa66-end (from UniProt Q86UX6)
relative phosphorylation
Settings | at +1 | at +2 | at +3 | at +4 | at -1 | at -2 | at -3 | at -4 | at -5
A fixed | 0.586 | 0.613 | 0.769 | 0.982 | 0.776 | 0.864 | 0.945 | 1.11 | 1.1
D fixed | 0.55 | 0.69 | 0.689 | 0.866 | 0.807 | 0.64 | 0.957 | 1.38 | 1.18
E fixed | 1.12 | 1.13 | 0.957 | 1.46 | 0.767 | 0.801 | 1.03 | 1.24 | 0.887
F fixed | 2.08 | 1.21 | 1.08 | 0.741 | 0.739 | 1.04 | 0.611 | 0.759 | 0.924
G fixed | 0.541 | 0.564 | 0.682 | 0.907 | 1.26 | 0.918 | 0.985 | 1.42 | 1.32
H fixed | 0.588 | 1.04 | 1.1 | 1.02 | 0.849 | 0.895 | 0.645 | 0.763 | 0.862
I fixed | 1.92 | 1.03 | 1.51 | 0.836 | 0.592 | 0.773 | 0.758 | 0.812 | 0.912
K fixed | 0.671 | 0.572 | 1.05 | 1.19 | 1.14 | 0.826 | 0.951 | 0.962 | 1.05
L fixed | 0.965 | 1.19 | 0.968 | 0.832 | 0.809 | 1.33 | 0.772 | 0.756 | 0.954
M fixed | 1.77 | 1.09 | 0.944 | 0.892 | 1.09 | 1.12 | 0.745 | 0.94 | 0.923
N fixed | 0.651 | 0.755 | 0.836 | 0.992 | 1.04 | 0.841 | 0.76 | 0.93 | 0.882
P fixed | 0.399 | 0.362 | 0.54 | 1.21 | 1.73 | 1.09 | 1.04 | 1.14 | 1.06
Q fixed | 1.18 | 0.714 | 0.917 | 1.07 | 1.08 | 0.824 | 0.796 | 0.838 | 0.779
R fixed | 1.06 | 0.743 | 1.23 | 1.25 | 1.97 | 2.49 | 3.68 | 1.38 | 1.43
V fixed | 1.14 | 0.809 | 1.33 | 0.798 | 0.779 | 0.745 | 0.814 | 0.883 | 0.854
W fixed | 0.863 | 2.44 | 1.21 | 1.05 | 0.672 | 0.887 | 0.698 | 0.86 | 0.954
Y fixed | 0.919 | 2.05 | 1.18 | 0.899 | 0.909 | 0.911 | 0.804 | 0.829 | 0.927
pThr fixed | 1.03 | 2.66 | 3.27 | 2.05 | 1.08 | 1.28 | 7.04 | 1.72 | 1.18
pTyr fixed | 2.11 | 71.5 | 5.77 | 9.82 | 1.41 | 2.55 | 1.39 | 1.07 | 1.07

LRRK2, construct: aa960-end (from UniProt Q5S007)
relative phosphorylation
Settings | at +1 | at +2 | at +3 | at +4 | at -1 | at -2 | at -3 | at -4 | at -5
A fixed | 0.869 | 0.867 | 0.909 | 0.908 | 0.82 | 1.05 | 0.893 | 0.985 | 1.01
D fixed | 0.525 | 0.559 | 0.696 | 0.691 | 0.639 | 0.516 | 0.675 | 0.685 | 0.698
E fixed | 0.546 | 0.451 | 0.595 | 0.673 | 0.517 | 0.477 | 0.662 | 0.719 | 0.741
F fixed | 0.874 | 1.17 | 0.884 | 1 | 0.94 | 1.95 | 1.05 | 1.23 | 1.09
G fixed | 0.82 | 0.826 | 0.894 | 0.966 | 1.17 | 1.18 | 1.06 | 1.06 | 0.993
H fixed | 0.814 | 1.02 | 1.16 | 1.18 | 1.15 | 1.18 | 1.08 | 0.949 | 1.04
I fixed | 0.996 | 0.834 | 0.649 | 0.934 | 0.482 | 0.684 | 0.74 | 0.758 | 0.906
K fixed | 1.91 | 1.44 | 1.82 | 1.39 | 1.76 | 0.755 | 1.43 | 1.12 | 1.08
L fixed | 1.15 | 0.786 | 0.755 | 0.865 | 0.812 | 0.943 | 0.85 | 0.842 | 0.858
M fixed | 1.08 | 0.952 | 0.776 | 0.949 | 0.969 | 1.35 | 0.974 | 0.957 | 1.05
N fixed | 0.977 | 0.943 | 1.12 | 1.12 | 1.03 | 0.799 | 0.881 | 0.805 | 0.83
P fixed | 0.941 | 0.724 | 0.822 | 0.794 | 0.88 | 0.943 | 1.01 | 1.1 | 0.989
Q fixed | 1.07 | 0.709 | 0.946 | 1.02 | 0.765 | 0.73 | 0.83 | 0.821 | 0.813
R fixed | 1.88 | 2.91 | 2.3 | 1.45 | 1.97 | 0.994 | 2.07 | 1.4 | 1.37
V fixed | 0.777 | 0.83 | 0.741 | 0.79 | 0.553 | 0.658 | 0.723 | 0.846 | 0.971
W fixed | 0.857 | 0.908 | 1.05 | 1.09 | 0.879 | 1.28 | 0.996 | 1.65 | 1.47
Y fixed | 0.916 | 1.07 | 0.885 | 1.17 | 1.65 | 1.51 | 1.07 | 1.08 | 1.1
pThr fixed | 0.67 | 0.672 | 0.925 | 0.822 | 0.54 | 0.782 | 0.822 | 0.859 | 0.932
pTyr fixed | 0.759 | 0.688 | 0.9 | 0.868 | 0.709 | 0.754 | 0.909 | 0.892 | 1.18

MAP3K8, construct: aa30-397 (from UniProt P41279)
relative phosphorylation
Settings | at +1 | at +2 | at +3 | at +4 | at -1 | at -2 | at -3 | at -4 | at -5
A fixed | 0.997 | 0.962 | 0.971 | 1.12 | 0.924 | 0.801 | 0.815 | 1.17 | 1.27
D fixed | 0.537 | 0.83 | 0.819 | 1.27 | 1.65 | 2 | 1.57 | 1.62 | 1.47
E fixed | 0.66 | 1.12 | 0.961 | 1.44 | 1.2 | 1.5 | 1.62 | 1.51 | 1.27
F fixed | 1.1 | 0.338 | 0.599 | 0.523 | 0.449 | 0.976 | 0.535 | 0.489 | 0.575
G fixed | 1.23 | 0.736 | 1.2 | 1.09 | 1.31 | 1.23 | 1.36 | 1.51 | 1.41
H fixed | 0.869 | 1.17 | 0.465 | 0.83 | 1.16 | 1.18 | 1.16 | 1.16 | 1.33
I fixed | 0.847 | 0.952 | 0.832 | 0.655 | 0.336 | 0.554 | 0.382 | 0.479 | 0.435
K fixed | 1.31 | 1.61 | 1.57 | 1.4 | 1.37 | 0.653 | 1.08 | 1.11 | 1.47
L fixed | 0.9 | 0.938 | 1.22 | 0.771 | 0.746 | 0.816 | 0.59 | 0.55 | 0.576
M fixed | 1.29 | 0.697 | 1.09 | 0.877 | 0.572 | 0.789 | 0.595 | 0.676 | 0.499
N fixed | 0.996 | 1.67 | 1.03 | 0.997 | 1.5 | 1.35 | 1.32 | 1.35 | 1.25
P fixed | 0.299 | 0.499 | 0.522 | 1.72 | 1.11 | 0.927 | 1.52 | 1.32 | 1.31
Q fixed | 1.36 | 1.9 | 1.21 | 1.09 | 1.28 | 0.913 | 1.16 | 1.01 | 0.943
R fixed | 1.31 | 1.5 | 1.73 | 1.02 | 1.41 | 0.717 | 1.15 | 1.05 | 1.08
V fixed | 1.07 | 1.25 | 0.992 | 0.809 | 0.601 | 0.519 | 0.446 | 0.536 | 0.694
W fixed | 0.806 | 0.382 | 0.78 | 0.689 | 0.591 | 0.805 | 0.835 | 0.707 | 0.834
Y fixed | 1.41 | 0.438 | 1.01 | 0.688 | 0.782 | 1.28 | 0.856 | 0.761 | 0.575
pThr fixed | 1.64 | 1.48 | 0.934 | 1.43 | 1.44 | 1.43 | 1.5 | 1.4 | 1.1
pTyr fixed | 0.716 | 1.83 | 1.08 | 1.17 | 1.51 | 0.871 | 1.49 | 0.882 | 1.1
